Laboratory results reported in PMC6066304.

Molecular target: Arabidopsis thaliana plant cysteine oxidase 5 (Arabidopsis thaliana) (UniProt Q9LXT4)
UniProt Q9LXT4, sequence (Q9LXT4 whole entry): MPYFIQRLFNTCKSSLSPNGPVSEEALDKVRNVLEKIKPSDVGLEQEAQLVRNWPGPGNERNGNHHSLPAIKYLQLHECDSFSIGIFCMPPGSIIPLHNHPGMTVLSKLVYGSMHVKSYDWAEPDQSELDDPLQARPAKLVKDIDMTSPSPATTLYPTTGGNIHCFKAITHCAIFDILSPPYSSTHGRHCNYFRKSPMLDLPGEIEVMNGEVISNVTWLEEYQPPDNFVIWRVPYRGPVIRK

- Km for AtRAP2(2–15); initial rates of N-terminal cysteine oxidation by LC-MS, Michaelis–Menten fit with substrate inhibition, atmospheric O2, pH 8.0, 25 °C: 0.16 mM
Substance: AtRAP2(2–15), 14-amino acid peptide corresponding to the methionine excised N terminus of AtRAP2.2 and AtRAP2.12
